Type in all cases: binding
Holding throughout (details): response relative to ADIFAB2

Assay [1] can be described thus: Probe fluorescence ratio response to linolenic acid relative to ADIFAB2. The procedure, abridged:
(§1)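 Each fatty acid's response was expressed relative to ADIFAB2, the rI-FABP-L72A probe, as ΔR/ΔRreference. ΔR is the change in the background-corrected two-wavelength intensity ratio R=Fλ1/Fλ2 from its analyte-free baseline R0. Emission was read near about 420-480 nm for unbound and about 495-580 nm for FFA-bound probe.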

Assay [2] is described as follows: Probe fluorescence ratio response to oleic acid relative to ADIFAB2. In outline: as §1
The nature of assay [3]: Probe fluorescence ratio response to palmitic acid relative to ADIFAB2. In outline:
as §1

The nature of assay [4]: Probe fluorescence ratio response to linoleic acid relative to ADIFAB2. The procedure, abridged:
as §1

Assay [5] is described as follows: Probe fluorescence ratio response to arachidonic acid relative to ADIFAB2. The procedure, abridged:
as §1

B1: 78F1, 72A (protein, listed as Rattus norvegicus)
chain: AFDGTWKVDRNENYEKFMEKMGINVVKRKLGAHDNLKLTITQEGNKFTVKESSNFRNIDVVFELGVDFAYSAADGTEFTGTWTMEGNKLVGKFKRVDNGKELIAVREISGNELIQTYTYEGVEAKRIFKKE
modifications: PEPTIDE (1)...(131) wild-type rat intestinal fatty acid binding protein
For B1, the “DR/DR LNA” value in assay [1] is 2.05. Also, the “DR/DR OA” value in assay [2] stood at 1.83. Besides, the “DR/DR PA” value in assay [3] was determined as 0.91. Moreover, the “DR/DR LA” value in assay [4] worked out at 2.00. Moreover, the “DR/DR AA” value in assay [5] (Arachidonic acid) is reported as 2.04.

B2: 78T1, 72A (protein, listed as Rattus norvegicus)
chain: AFDGTWKVDRNENYEKFMEKMGINVVKRKLGAHDNLKLTITQEGNKFTVKESSNFRNIDVVFELGVDFAYSAADGTETTGTWTMEGNKLVGKFKRVDNGKELIAVREISGNELIQTYTYEGVEAKRIFKKE
modifications: PEPTIDE (1)...(131) wild-type rat intestinal fatty acid binding protein
Consider B2, for which the “DR/DR LNA” value in assay [1] was determined as 1.20. Further, in assay [2], the “DR/DR OA” value worked out at 1.08. Moreover, in assay [3], the “DR/DR PA” value is given as 0.54. Besides, the “DR/DR LA” value in assay [4] came to 1.25. In assay [5] (Arachidonic acid), the “DR/DR AA” value amounted to 1.07.

B3: 82A, 72A (protein, listed as Rattus norvegicus)
chain: AFDGTWKVDRNENYEKFMEKMGINVVKRKLGAHDNLKLTITQEGNKFTVKESSNFRNIDVVFELGVDFAYSAADGTELTGTATMEGNKLVGKFKRVDNGKELIAVREISGNELIQTYTYEGVEAKRIFKKE
modifications: PEPTIDE (1)...(131) wild-type rat intestinal fatty acid binding protein
Consider B3, for which, in assay [1], the “DR/DR LNA” value is recorded as 1.56. In addition, the “DR/DR OA” value in assay [2] is listed as 1.53. In assay [3], the “DR/DR PA” value was determined as 0.84. Besides, the “DR/DR LA” value in assay [4] was determined as 1.67. For the same molecule, in assay [5] (Arachidonic acid), the “DR/DR AA” value was determined as 1.55.

B4: 82A1, 72A (protein, listed as Rattus norvegicus)
chain: AFDGTWKVDRNENYEKFMEKMGINVVKRKLGAHDNLKLTITQEGNKFTVKESSNFRNIDVVFELGVDFAYSAADGTELTGTATMEGNKLVGKFKRVDNGKELIAVREISGNELIQTYTYEGVEAKRIFKKE
modifications: PEPTIDE (1)...(131) wild-type rat intestinal fatty acid binding protein
For the molecule B4, the “DR/DR LNA” value in assay [1] was 0.66. For the same molecule, the “DR/DR OA” value in assay [2] amounted to 0.80. In assay [3], the “DR/DR PA” value came out at 0.26. Also, the “DR/DR LA” value in assay [4] is given as 0.78. For the same molecule, the “DR/DR AA” value in assay [5] (Arachidonic acid) turned out to be 0.73.

B5: 78W1, 72A (protein, listed as Rattus norvegicus)
chain: AFDGTWKVDRNENYEKFMEKMGINVVKRKLGAHDNLKLTITQEGNKFTVKESSNFRNIDVVFELGVDFAYSAADGTEWTGTWTMEGNKLVGKFKRVDNGKELIAVREISGNELIQTYTYEGVEAKRIFKKE
modifications: PEPTIDE (1)...(131) wild-type rat intestinal fatty acid binding protein
On to B5, for which, in assay [1], the “DR/DR LNA” value amounted to 0.53. In addition, the “DR/DR OA” value in assay [2] is recorded as 0.53. For the same molecule, the “DR/DR PA” value in assay [3] is listed as 0.29. Further, the “DR/DR LA” value in assay [4] is 0.57. In addition, the “DR/DR AA” value in assay [5] (Arachidonic acid) was found to be 0.49.

B6: 78I1, 72A (protein, listed as Rattus norvegicus)
chain: AFDGTWKVDRNENYEKFMEKMGINVVKRKLGAHDNLKLTITQEGNKFTVKESSNFRNIDVVFELGVDFAYSAADGTEITGTWTMEGNKLVGKFKRVDNGKELIAVREISGNELIQTYTYEGVEAKRIFKKE
modifications: PEPTIDE (1)...(131) wild-type rat intestinal fatty acid binding protein
Regarding B6, in assay [1], the “DR/DR LNA” value is 1.66. For the same molecule, in assay [2], the “DR/DR OA” value came to 0.93. In assay [3], the “DR/DR PA” value is listed as 0.52. Also, the “DR/DR LA” value in assay [4] was 1.11. Further, the “DR/DR AA” value in assay [5] (Arachidonic acid) came to 1.27.

B7: 82F1, 72A (protein, listed as Rattus norvegicus)
chain: AFDGTWKVDRNENYEKFMEKMGINVVKRKLGAHDNLKLTITQEGNKFTVKESSNFRNIDVVFELGVDFAYSAADGTELTGTFTMEGNKLVGKFKRVDNGKELIAVREISGNELIQTYTYEGVEAKRIFKKE
modifications: PEPTIDE (1)...(131) wild-type rat intestinal fatty acid binding protein
As for B7, the “DR/DR LNA” value in assay [1] is 0.76. Besides, the “DR/DR OA” value in assay [2] came to 0.78. For the same molecule, the “DR/DR PA” value in assay [3] is 0.41. Besides, the “DR/DR LA” value in assay [4] is 1.08. Further, in assay [5] (Arachidonic acid), the “DR/DR AA” value came to 0.68.

B8: 78H1, 72A (protein, listed as Rattus norvegicus)
chain: AFDGTWKVDRNENYEKFMEKMGINVVKRKLGAHDNLKLTITQEGNKFTVKESSNFRNIDVVFELGVDFAYSAADGTEHTGTWTMEGNKLVGKFKRVDNGKELIAVREISGNELIQTYTYEGVEAKRIFKKE
modifications: PEPTIDE (1)...(131) wild-type rat intestinal fatty acid binding protein
B8: the “DR/DR LNA” value in assay [1] turned out to be 1.26. For the same molecule, the “DR/DR OA” value in assay [2] was 1.13. Also, the “DR/DR PA” value in assay [3] is listed as 0.57. Also, the “DR/DR LA” value in assay [4] is reported as 1.28. Moreover, the “DR/DR AA” value in assay [5] (Arachidonic acid) was determined as 1.23.

B9: 104I1, 72A (protein, listed as Rattus norvegicus)
chain: AFDGTWKVDRNENYEKFMEKMGINVVKRKLGAHDNLKLTITQEGNKFTVKESSNFRNIDVVFELGVDFAYSAADGTELTGTWTMEGNKLVGKFKRVDNGKELIIVREISGNELIQTYTYEGVEAKRIFKKE
modifications: PEPTIDE (1)...(131) wild-type rat intestinal fatty acid binding protein
Consider B9, for which the “DR/DR LNA” value in assay [1] amounted to 0.30. Besides, in assay [2], the “DR/DR OA” value was 0.31. The “DR/DR PA” value in assay [3] came to 0.23. Further, the “DR/DR LA” value in assay [4] was found to be 0.30. Besides, the “DR/DR AA” value in assay [5] (arachidonic acid) worked out at 0.28.

B10: 82I3, 72A (protein, listed as Rattus norvegicus)
chain: AFDGTWKVDRNENYEKFMEKMGINVVKRKLGAHDNLKLTITQEGNKFTVKESSNFRNIDVVFELGVDFAYSAADGTELTGTITMEGNKLVGKFKRVDNGKELIAVREISGNELIQTYTYEGVEAKRIFKKE
modifications: PEPTIDE (1)...(131) wild-type rat intestinal fatty acid binding protein
In the case of B10, the “DR/DR LNA” value in assay [1] was 0.45. In addition, the “DR/DR OA” value in assay [2] amounted to 0.54. The “DR/DR PA” value in assay [3] was 0.36. The “DR/DR LA” value in assay [4] is listed as 0.52. Besides, the “DR/DR AA” value in assay [5] (Arachidonic acid) came to 0.67.

B11: 78M1, 72A (protein, listed as Rattus norvegicus)
chain: AFDGTWKVDRNENYEKFMEKMGINVVKRKLGAHDNLKLTITQEGNKFTVKESSNFRNIDVVFELGVDFAYSAADGTEMTGTWTMEGNKLVGKFKRVDNGKELIAVREISGNELIQTYTYEGVEAKRIFKKE
modifications: PEPTIDE (1)...(131) wild-type rat intestinal fatty acid binding protein
Turning to B11, the “DR/DR LNA” value in assay [1] is listed as 1.50. Also, the “DR/DR OA” value in assay [2] is listed as 1.44. In addition, the “DR/DR PA” value in assay [3] worked out at 0.92. Also, the “DR/DR LA” value in assay [4] was 1.44. The “DR/DR AA” value in assay [5] (Arachidonic acid) was determined as 1.39.
